How the values were obtained:
Neto2-ΔCUB2-HA = Neto2-ΔCUB2-HA (UniProt Q8BNJ6); assay: co-IP
Neto1-ΔCUB2-HA = Neto1-ΔCUB2-HA (UniProt Q8R4I7); assay: co-IP

amount of GluK2 co-immunoprecipitated, percent of full length Neto2 (Neto2-ΔCUB2-HA): 33%
amount of GluK2 co-immunoprecipitated, percent of full length Neto1 (Neto1-ΔCUB2-HA): 39%
Substance: FLAG-GluK2 (from UniProt P42260 32-908) (receptor)

Reference: PMC3148853
